# Measurements published in patent US20240360228A1 (BIOLEGEND, published 2024).
# Changes are numbered by the printed parent chain.
# B1: AB8 (antibody, V domains shown)
# VH: AVQLVESGGGLVQPKESLKISCAASGFIFSNAAMYWVRQAPGKGLQWVARIRTKPKNYATYYIDSVKGRFTISRDDSKSMVYLQMDNLKTEDTAMYYCNTMGLTRAYYFDYWGQGVMVTVSS
# VL: DIQMTQSPSFLSASVGDRVTINCKASQNINRYLNWYQQKLGEAPKLLIYNANSLQTGIPSRFSGSGSGTDFTLTIRSLQPEDVATYFCLQHNSWPWTFGGGTKLELK
# notes: Hybridoma monoclonal; also called antibody 8; clone 8
# B2: AB2 (antibody, V domains shown)
# VH: QVQLKESGPGLVKPSETLSLTCTVSGFSLTSYHISWVRQPPGKGLEWMGVIWGDGSKTYNSALKSRLSISRDTSKSQVFLKMRSLKTEDTATYYCARGGDSGFAYWGQGTLVTVSS
# VL: DIQMTQSPASLSASLEEIVTITCQASQDIGNWLSWYQQKPGKSPQLLIYGTTNLADGVPSRFSGSRSGTQYSLKISRLQVEDIGIYYCLQAYSVPLTFGSGTKLEIK
# notes: Hybridoma monoclonal; also called antibody 2; clone 2
# B3: AB5 (antibody, V domains shown)
# VH: QVQLKESGPGLVQPSQTLSLTCTVSGFSLTSYHVSWVRQPPGKGLEWMGVIWTGGSTTYNSLLKSRLSISRDISKSQVFLKMNSLQTEDTATYYCARGGTVVKGGFAYWGQGTLVTVSS
# VL: B2 VL with W32R, T51A, N53S, V94T
# notes: Hybridoma monoclonal; also called antibody 5; clone 5
# B4: AB13 (antibody, V domains shown)
# VH: EVQLVETGGGLVQPKGSLKLSCAASGFTFNAYAMNWVRQAPGKGLEWVARIRTKSNNYATYYADSVKDRFTISRDDSQTMLYLQMNNLKTEDTAMYYCVRDRATVTTGRAMDYWGQGTSVTVSS
# VL: DIVMTQAAPSLPVTPGESVSISCRSSKSLLHSNGNTYLYWFLQRAGQSPQLLIYRMSNLASGVPDRFSGSGSGTAFTLRISRVEAEDVGVYYCMQHLEYPFTFGSGTKLEIK
# notes: Hybridoma monoclonal; also called antibody 13; clone 13
# B5: AB15 (antibody, V domains shown)
# VH: EVQLVESGGGLVQPKGSLKLSCAASGFTFNTYAMNWVRQAPGKGLEWVARIRSKSNNYATYYVDSVKDRFTISRDDSQSMLYLQINNLKTEDTAMYYCVRGRELGPYSAMDYWGQGTSVTVSS
# VL: B4 VL with L11V, A45P, V90L, S105G
# notes: Hybridoma monoclonal; also called antibody 15; clone 15
# Molecular target: T1, human chemokine (C-C motif) receptor 8 (CCR8) (human, UniProt P51685 1-355)
# T1 construct: On human peripheral blood lymphocytes / PBMC (native) or on human CCR8 GFP-transfected Ba/F3 cells; also called hCCR8; human CCR8
# Assay: flow cytometry blocking, PBMC CCR8+ CD4+ cells; competitor PE-AB10 (its MFI is read)
# Description: (§1) For blocking studies, 100 μL of the cell suspension were incubated with 10 μg purified isotype control, AB1, AB2, AB3, AB4, AB5, AB8, AB9, AB10, AB11, AB12, AB13, AB14, AB15, and Commercial ABI antibodies, or isotype control, as blocking agents.
# (§2) After incubation with the blocking agent, the cells were incubated with 0.25 μg of the indicated PE-conjugated antibody plus anti-human CD4 APC or anti-human CD3 for another 15 minutes in the dark and then washed 2 times with Cell Staining Buffer, and acquired in a FACSCanto II flow cytometer (BD Biosciences); the data was analyzed using FCS Express (De Novo Software); MFI correspond to the CCR8+ CD4+ lymphocytes or CCR8+ CD3+ lymphocytes.
# (§3) Percentage original MFI was calculated by dividing the MFI of samples blocked with AB1, AB2, AB3, AB4, AB5, AB6, AB7, AB8, AB9, AB10, AB11, AB12, AB13, AB14, AB15, and Commercial ABI antibodies, by the MFI of samples blocked with the corresponding isotype control. This value was subtracted from 100 to get a blocking percentage. The formula is shown below: […]
# T1 sequence (P51685 whole entry): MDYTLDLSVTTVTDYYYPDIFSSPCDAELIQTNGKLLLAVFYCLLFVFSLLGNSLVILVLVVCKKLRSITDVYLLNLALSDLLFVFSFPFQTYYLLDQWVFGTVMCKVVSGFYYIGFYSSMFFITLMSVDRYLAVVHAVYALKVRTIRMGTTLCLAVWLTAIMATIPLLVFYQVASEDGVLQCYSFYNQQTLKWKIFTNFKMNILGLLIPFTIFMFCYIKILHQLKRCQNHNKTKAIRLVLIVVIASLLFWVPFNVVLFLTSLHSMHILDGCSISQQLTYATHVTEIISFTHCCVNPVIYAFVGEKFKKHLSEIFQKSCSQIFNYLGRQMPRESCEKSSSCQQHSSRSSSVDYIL
% Blocking [%],MFI,Binder
-81.3,1830,B1
-8.07,1090,B2
-7.11,1080,B3
-36.6,1380,B4
1.55,992,B5

# Molecular target: T1, human chemokine (C-C motif) receptor 8 …
# Assay: flow cytometry blocking, PBMC CCR8+ CD4+ cells; competitor PE-AB1 (its MFI is read)
# Description: as §1, §2, §3
% Blocking [%],MFI,Binder
-49.5,980,B1
13.5,567,B2
39.7,395,B3
-41.5,927,B4
-51.8,995,B5

# Molecular target: T1, human chemokine (C-C motif) receptor 8 …
# Assay: flow cytometry blocking, PBMC CCR8+ CD4+ cells; competitor PE-AB12 (its MFI is read)
# Description: as §1, §2, §3
% Blocking [%],MFI,Binder
20.8,773,B1
-9.94,1070,B2
-17.2,1140,B3
-0.1,977,B4
34.1,643,B5

# Molecular target: T1, human chemokine (C-C motif) receptor 8 …
# Assay: flow cytometry blocking, PBMC CCR8+ CD4+ cells; competitor PE-AB5 (its MFI is read)
# Description: as §1, §2, §3
% Blocking [%],MFI,Binder
-27.2,953,B1
36.7,475,B2
44.9,413,B3
-35.7,1020,B4
-29.4,970,B5

# Molecular target: T1, human chemokine (C-C motif) receptor 8 …
# Assay: flow cytometry blocking, PBMC CCR8+ CD4+ cells; competitor PE-AB2 (its MFI is read)
# Description: as §1, §2, §3
% Blocking [%],MFI,Binder
-42.4,953,B1
26.7,491,B2
47.1,355,B3
-54.3,1030,B4
-60.8,1080,B5

# Molecular target: T1, human chemokine (C-C motif) receptor 8 …
# Assay: flow cytometry blocking, PBMC CCR8+ CD4+ cells; competitor PE-AB14 (its MFI is read)
# Description: as §1, §2, §3
% Blocking [%],MFI,Binder
6.78,826,B1
2.39,865,B2
-4.39,925,B3
-413,4550,B4
38.4,546,B5

# Molecular target: T1, human chemokine (C-C motif) receptor 8 …
# Assay: flow cytometry blocking, PBMC CCR8+ CD4+ cells; competitor PE-AB15 (its MFI is read)
# Description: as §1, §2, §3
% Blocking [%],MFI,Binder
-56.6,1240,B1
-7.83,855,B2
-6.62,845,B3
-15.9,919,B4
19.4,639,B5

# Molecular target: T1, human chemokine (C-C motif) receptor 8 …
# Assay: flow cytometry blocking, PBMC CCR8+ CD4+ cells; competitor PE-AB4 (its MFI is read)
# Description: as §1, §2, §3
% Blocking [%],MFI,Binder
-40.9,962,B1
16.2,572,B2
-6.8,729,B3
-42.8,975,B4
-45.6,994,B5

# Molecular target: T1, human chemokine (C-C motif) receptor 8 …
# Assay: flow cytometry blocking, PBMC CCR8+ CD4+ cells; competitor PE-AB11 (its MFI is read)
# Description: as §1, §2, §3
% Blocking [%],MFI,Binder
40.4,537,B1
-7.68,971,B2
-11.2,1000,B3
37.7,562,B4
20.9,713,B5

# Molecular target: T1, human chemokine (C-C motif) receptor 8 …
# Assay: flow cytometry blocking, PBMC CCR8+ CD4+ cells; competitor PE-AB6 (its MFI is read)
# Description: as §1, §2, §3
% Blocking [%],MFI,Binder
-20.4,944,B1
45.9,424,B2
35.7,504,B3
-30.7,1020,B4
-35.7,1060,B5

# Molecular target: T1, human chemokine (C-C motif) receptor 8 …
# Assay: cell-based or functional assay
row,% hCCR8-Ba/F3 - THP-1 complexes [%],Binder
1,1.78,B1
2,0.48,B2
3,1.51,B3
4,1.16,B4
5,1.07,B5

# Molecular target: T1, human chemokine (C-C motif) receptor 8 …
# Assay: flow cytometry blocking, PBMC CCR8+ CD4+ cells; competitor PE-AB13 (its MFI is read)
# Description: as §1, §2, §3
% Blocking [%],MFI,Binder
33.4,623,B1
8.25,859,B2
-5.77,990,B3
27.4,680,B4
-3.67,971,B5

# Molecular target: T1, human chemokine (C-C motif) receptor 8 …
# Assay: flow cytometry blocking, PBMC CCR8+ CD4+ cells; competitor PE-ABII (its MFI is read)
# Description: as §1, §2, §3
% Blocking [%],MFI,Binder
27,808,B1
0.77,1100,B2
-8.53,1200,B3
12.2,972,B4
-0.05,1110,B5

# Molecular target: T1, human chemokine (C-C motif) receptor 8 …
# Assay: flow cytometry blocking, PBMC CCR8+ CD4+ cells; competitor PE-AB3 (its MFI is read)
# Description: as §1, §2, §3
% Blocking [%],MFI,Binder
-43.3,994,B1
42.4,399,B2
47.3,366,B3
-39.7,970,B4
-61.4,1120,B5
